# IntAct's records for PubMed 15466887
# B1: Beta-secretase 1 (Homo sapiens), P56817 (parent)
# chain: MAQALPWLLLWMGAGVLPAHGTQHGIRLPLRSGLGGAPLGLRLPRETDEEPEEPGRRGSFVEMVDNLRGKSGQGYYVEMTVGSPPQTLNILVDTGSSNFAVGAAPHPFLHRYYQRQLSSTYRDLRKGVYVPYTQGKWEGELGTDLVSIPHGPNVTVRANIAAITESDKFFINGSNWEGILGLAYAEIARPDDSLEPFFDSLVKQTHVPNLFSLQLCGAGFPLNQSEVLASVGGSMIIGGIDHSLYTGSLWYTPIRREWYYEVIIVRVEINGQDLKMDCKEYNYDKSIVDSGTTNLRLPKKVFEAAVKSIKAASSTEKFPDGFWLGEQLVCWQAGTTPWNIFPVISLYLMGEVTNQSFRITILPQQYLRPVEDVATSQDDCYKFAISQSSTGTVMGAVIMEGFYVVFDRARKRIGFAVSACHVHDEFRTAAVEGPFVTLDMEDCGYNIPQTDESTLMTIAYVMAAICALFMLPLCLMVCQWRCLRCLRQQHDDFADDISLLK
# partner: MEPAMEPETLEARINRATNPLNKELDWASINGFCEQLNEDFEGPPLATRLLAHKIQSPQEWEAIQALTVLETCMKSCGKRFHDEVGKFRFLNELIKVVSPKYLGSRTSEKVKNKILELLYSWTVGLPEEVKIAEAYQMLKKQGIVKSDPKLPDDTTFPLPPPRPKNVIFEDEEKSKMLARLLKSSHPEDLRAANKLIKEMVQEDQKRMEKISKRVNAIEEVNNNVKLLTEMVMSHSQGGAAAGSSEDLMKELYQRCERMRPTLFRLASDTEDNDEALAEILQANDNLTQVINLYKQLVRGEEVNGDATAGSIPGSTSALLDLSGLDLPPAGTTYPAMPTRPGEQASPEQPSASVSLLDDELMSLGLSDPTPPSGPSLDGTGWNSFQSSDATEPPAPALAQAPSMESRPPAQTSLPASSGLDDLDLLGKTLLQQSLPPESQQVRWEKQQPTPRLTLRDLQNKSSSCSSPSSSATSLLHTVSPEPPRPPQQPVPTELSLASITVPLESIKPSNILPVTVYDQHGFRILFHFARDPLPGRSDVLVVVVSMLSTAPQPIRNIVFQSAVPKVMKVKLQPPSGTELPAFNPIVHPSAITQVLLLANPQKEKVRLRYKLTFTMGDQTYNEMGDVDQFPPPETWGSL
# Variants of: B1
# Settings: with gga1_human GGA1, Q9UJY5
row,effect of a mutation on the interaction,Variant
1,decreasing interaction strength,S498A
2,with no effect,S498D
